Results as given in the Human Domainome abundance scans (Beltran et al. 2025).
± gives the uncertainty stated by the source.

B1: Steroid hormone receptor ERR2, residues 100 to 176; numbered along this chain, O95718 (parent)
chain: KRLCLVCGDIASGYHYGVASCEACKAFFKRTIQGNIEYSCPATNECEITKRRRKSCQACRFMKCLKVGMLKEGVRLD

Variants of: B1
Assay: abundance fitness (aPCA) (normalised: wild type 0, dead -1); higher = more abundant; growth selection in yeast, the domain comes from the species named
Details: Homo sapiens

| Variant | abundance fitness |
| --- | --- |
| KRLCLVCGDIASGYHYGVASCEACKAFFKRTIQGNIEYSCPATNECEITKRRRKSCQACRFMKCLKVGMLKEGFRLD | -0.171 ± 0.091 |
| KRLCLVCGDIASGYHYGVASCEACKAFFKRTIQGNIEYSCPATNECEITKRRRKSCQACRFMKCLKVGMLKEGERLD | 0.08 ± 0.054 |
| KRLCLVCGDIASGYHYGVASCEACKAFFKRTIQGNIEYSCPATNECEITKRRRKSCQACRFMKCLKVGMLKEGRRLD | -0.191 ± 0.046 |
| KRLCLVCGDIASGYHYGVASCEACKAFFKRTIQGNIEYSCPATNECEITKRRRKSCQACRFMKCLKVGMLKEGYRLD | -0.319 ± 0.16 |
| KRLCLVCGDIASGYHYGVASCEACKAFFKRTIQGNIEYSCPATNECEITKRRRKSCQACRFMKCLKVGMLKEGCRLD | -0.501 ± 0.13 |
| KRLCLVCGDIASGYHYGVASCEACKAFFKRTIQGNIEYSCPATNECEITKRRRKSCQACRFMKCLKVGMLKEGSRLD | -0.017 ± 0.052 |
| KRLCLVCGDIASGYHYGVASCEACKAFFKRTIQGNIEYSCPATNECEITKRRRKSCQACRFMKCLKVGMLKEGPRLD | -0.025 ± 0.094 |
| KRLCLVCGDIASGYHYGVASCEACKAFFKRTIQGNIEYSCPATNECEITKRRRKSCQACRFMKCLKVGMLKEGLRLD | -0.004 ± 0.05 |
| KRLCLVCGDIASGYHYGVASCEACKAFFKRTIQGNIEYSCPATNECEITKRRRKSCQACRFMKCLKVGMLKEGGRLD | -0.089 ± 0.039 |
| KRLCLVCGDIASGYHYGVASCEACKAFFKRTIQGNIEYSCPATNECEITKRRRKSCQACRFMKCLKVGMLKEGNRLD | -0.036 ± 0.11 |
| KRLCLVCGDIASGYHYGVASCEACKAFFKRTIQGNIEYSCPATNECEITKRRRKSCQACRFMKCLKVGMLKEGTRLD | -0.129 ± 0.08 |
| KRLCLVCGDIASGYHYGVASCEACKAFFKRTIQGNIEYSCPATNECEITKRRRKSCQACRFMKCLKVGMLKEGARLD | 0.126 ± 0.05 |
| KRLCLVCGDIASGYHYGVASCEACKAFFKRTIQGNIEYSCPATNECEITKRRRKSCQACRFMKCLKVGMLKEGMRLD | -0.13 ± 0.075 |
| KRLCLVCGDIASGYHYGVASCEACKAFFKRTIQGNIEYSCPATNECEITKRRRKSCQACRFMKCLKVGMLKEGIRLD | -0.026 ± 0.088 |
| KRLCLVCGDIASGYHYGVASCEACKAFFKRTIQGNIEYSCPATNECEITKRRRKSCQACRFMKCLKVGMLKEGKRLD | -0.124 ± 0.078 |
| KRLCLVCGDIASGYHYGVASCEACKAFFKRTIQGNIEYSCPATNECEITKRRRKSCQACRFMKCLKVGMLKEGDRLD | 0.03 ± 0.091 |
| KRLCLVCGDIASGYHYGVASCEACKAFFKRTIQGNIEYSCPATNECEITKRRRKSCQACRFMKCLKVGMLVEGVRLD | -0.02 ± 0.045 |
| KRLCLVCGDIASGYHYGVASCEACKAFFKRTIQGNIEYSCPATNECEITKRRRKSCQACRFMKCLKVGMLPEGVRLD | -0.19 ± 0.084 |

| Variant | abundance fitness |
| --- | --- |
| KRLCLVCGDIASGYHYGVASCEACKAFFKRTIQGNIEYSCPATNECEITKRRRKSCQACRFMKCLKVGMLSEGVRLD | -0.025 ± 0.054 |
| KRLCLVCGDIASGYHYGVASCEACKAFFKRTIQGNIEYSCPATNECEITKRRRKSCQACRFMKCLKVGMLYEGVRLD | -0.222 ± 0.12 |
| KRLCLVCGDIASGYHYGVASCEACKAFFKRTIQGNIEYSCPATNECEITKRRRKSCQACRFMKCLKVGMLQEGVRLD | -0.153 ± 0.073 |
| KRLCLVCGDIASGYHYGVASCEACKAFFKRTIQGNIEYSCPATNECEITKRRRKSCQACRFMKCLKVGMLTEGVRLD | -0.106 ± 0.075 |
| KRLCLVCGDIASGYHYGVASCEACKAFFKRTIQGNIEYSCPATNECEITKRRRKSCQACRFMKCLKVGMLNEGVRLD | -0.147 ± 0.093 |
| KRLCLVCGDIASGYHYGVASCEACKAFFKRTIQGNIEYSCPATNECEITKRRRKSCQACRFMKCLKVGMLWEGVRLD | -0.242 ± 0.058 |
| KRLCLVCGDIASGYHYGVASCEACKAFFKRTIQGNIEYSCPATNECEITKRRRKSCQACRFMKCLKVGMLKELVRLD | -0.016 ± 0.046 |
| KRLCLVCGDIASGYHYGVASCEACKAFFKRTIQGNIEYSCPATNECEITKRRRKSCQACRFMKCLKVGMLKECVRLD | -0.126 ± 0.084 |
| KRLCLVCGDIASGYHYGVASCEACKAFFKRTIQGNIEYSCPATNECEITKRRRKSCQACRFMKCLKVGMLKEMVRLD | 0.007 ± 0.069 |
| KRLCLVCGDIASGYHYGVASCEACKAFFKRTIQGNIEYSCPATNECEITKRRRKSCQACRFMKCLKVGMLKENVRLD | -0.107 ± 0.11 |
| KRLCLVCGDIASGYHYGVASCEACKAFFKRTIQGNIEYSCPATNECEITKRRRKSCQACRFMKCLKVGMLKEFVRLD | -0.369 ± 0.14 |
| KRLCLVCGDIASGYHYGVASCEACKAFFKRTIQGNIEYSCPATNECEITKRRRKSCQACRFMKCLKVGMLKEVVRLD | -0.132 ± 0.05 |
| KRLCLVCGDIASGYHYGVASCEACKAFFKRTIQGNIEYSCPATNECEITKRRRKSCQACRFMKCLKVGMLKEKVRLD | 0.017 ± 0.068 |
| KRLCLVCGDIASGYHYGVASCEACKAFFKRTIQGNIEYSCPATNECEITKRRRKSCQACRFMKCLKVGMLKEAVRLD | 0.08 ± 0.049 |
| KRLCLVCGDIASGYHYGVASCEACKAFFKRTIQGNIEYSCPATNECEITKRRRKSCQACRFMKCLKVGMLKEYVRLD | -0.6 ± 0.22 |
| KRLCLVCGDIASGYHYGVASCEACKAFFKRTIQGNIEYSCPATNECEITKRRRKSCQACRFMKCLKVGMLKEDVRLD | 0.133 ± 0.079 |
| KRLCLVCGDIASGYHYGVASCEACKAFFKRTIQGNIEYSCPATNECEITKRRRKSCQACRFMKCLKVGMLKERVRLD | -0.056 ± 0.043 |
